In article PMC12501420, “Small DUF1127 proteins regulate bacterial phosphate metabolism through protein–protein interactions with the sensor kinase PhoR” (microLife, 2025):

Target: T1, Strep-PhoR, sensor kinase PhoR from E. coli, purified (E. coli, UniProt P08400 1-431)
T1 construct: sensor kinase PhoR of Escherichia coli; one of 'both Strep-PhoR proteins' of the methods; also called E. coli PhoR; source: E. coli BL21, purified (membranes solubilised with Triton X-100, Strep-Tactin)
T1 sequence (looked up): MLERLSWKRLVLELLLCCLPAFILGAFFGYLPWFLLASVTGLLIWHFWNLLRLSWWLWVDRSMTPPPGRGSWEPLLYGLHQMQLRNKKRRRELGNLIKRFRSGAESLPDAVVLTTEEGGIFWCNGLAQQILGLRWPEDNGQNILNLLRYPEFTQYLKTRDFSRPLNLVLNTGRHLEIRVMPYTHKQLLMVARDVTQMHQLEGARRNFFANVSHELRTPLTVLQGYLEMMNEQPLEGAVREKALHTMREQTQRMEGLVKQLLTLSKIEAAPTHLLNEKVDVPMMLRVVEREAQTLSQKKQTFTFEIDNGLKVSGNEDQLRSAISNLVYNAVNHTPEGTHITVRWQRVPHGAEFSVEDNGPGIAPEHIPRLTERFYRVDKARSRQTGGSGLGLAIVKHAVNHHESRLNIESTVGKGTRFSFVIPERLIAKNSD
Experiment: far-Western, overlay or dot blot; Far-Western dot blot: Strep-tagged bait proteins spotted on a nitrocellulose membrane, incubated with His-SUMO-tagged DUF1127 protein, detected with anti-His antibody; EveryBlot blocking buffer, PBST washes (for E. coli PhoR and YjiS, Fig. 8B, it is not told who was spotted)
Conditions: both partners purified

B1: YjiS from E. coli, purified (natural protein, UniProt P39390 1-54, looked up)
chain: MEFHENRAKAPFIGLVQLWQAVRRWRRQMQTRRVLQQMSDERLKDIGLRREDVE
notes: YjiS, the sole DUF1127 protein of Escherichia coli, a 54-amino acid protein; also called E. coli YjiS
  binding result: binds
